Measurements from patent US6825164 (TRUSTEES OF COLUMBIA UNIVERSITY IN THE CITY OF NEW YORK, dated 2004).
Ends that are not written are not given here.

B1: Mouse receptor for advanced glycation endproduct (RAGE) at the blood-brain barrier (receptor)
chain: GQNITARIGEPLVLSCKGAPKKPPQQLEWKLNTGRTEAWKVLSPQGGPWDSVAQILPNGSLLLPATGIVDEGTFRCRATNRRGKEVKSNYRVRVYQIPGKPEIVDPASELTASVPNKVGTCVSEGSYPAGTLSWHLDGKLLIPDGKETLVKEETRRHPETGLFTLRSELTVIPTQGGTTHPTFSCSFSLGLPRRRPLNTAPIQLRVREPGPPEGIQLLVEPEGGIVAPGGTVTLTCAISAQPPPQVHWIKDGAPLPLAPSPVLLLPEVGHADEGTYSCVATHPSHGPQESPPVSIRVTETGDEGPAEGSVGESGLGTLALALGILGGLGVVALLVGAILWRKRQPRREERKAPESQEDEEERAELNQSEEAEMPENGAGGP
notes: Endogenous RAGE on brain microvessels/endothelium of living mice (brain perfusion model); The mice in the experiments were of other strains; also called receptor for advanced glycosylation end products

Key:
[1] = molecular target: B1; test: in vivo brain perfusion with 125I-Aβ, capillary-depletion, binding to brain microvessels
Method: (§1) Injection of radioisotopes for transport studies. […] When the effects of different unlabeled molecular reagents were tested, those were injected 5 min prior to tracers injection and than simultaneously with radiolabled ligands. At predetermined times within 10 min mice were sacrificed by decapitation, and brain tissue prepared for radioactivity analysis. TCA and HPLC analysis as we described were used to determine molecular forms of uptake of radiolabeled Aβ by the BBB. Capillary-depletion technique was used to separate micravascular pellet from capillary-depleted brain to quantify in vivo binding to microvessels vs. transport into brain parenchyma, as we reported.

[2] = molecular target: T1, Aβ1-40 human form (synthetic amyloid-beta peptide 1-40) (human, UniProt P05067 672-711, radioiodinated with Na[125I] for the transport and binding studies); test: as above
T1 construct: domain: Aβ1-40; Stock solutions in DMSO to keep it monomeric; Aβ numbering 1-40 counts on the Aβ peptide, not on APP; also called human Aβ1-40; Amyloid β1-40 peptide
Method: as §1

Row | Binder | binding result [1] | binding result [2]
1 | DAEFGHDSGFEVRHQKLVFFAEDVGSNKGAIIGLMVGGVV (peptide, UniProt P12023 672-711, looked up, also: radioiodinated with Na[125I], position not given here, domain: Aβ1-40; also called mouse Aβ1-40; murine Aβ1-40) [Aβ1-40 murine form (synthetic amyloid-beta peptide 1-40)] | binds | 
2 | B1 |  | binds
